This is an account of results in patent US20240117019A1 (UNIVERSITY OF GEORGIA RESEARCH FOUNDATION, published 2024).

The term EC50 denotes the concentration needed to bring the measured effect to its halfway point. As a reminder, the EC50 (read off the curve) is the concentration that produces a half-maximal response.

The target of assay [1] is T1, recombinant His-tagged full-length pneumococcal surface protein A (PspA) from strain TCH8431 (serotype 19A) (Streptococcus pneumoniae strain TCH8431 …).
T1 construct: range 1-725; also called recombinant PspA
Put plainly: ELISA on coated recombinant PspA, non-linear regression fit. Background: ELISA stands for enzyme-linked immunosorbent assay.

The target in assay [2] is T2, PspA protein of pneumococcal strain TCH8431 (serotype 19A), native, in lysates or on whole bacteria (Streptococcus pneumoniae strain TCH8431 …).
T2 construct: whole, on cells; also called PspA protein from strain TCH8431
Nature of the assay: ELISA on plates coated with fixed whole bacteria, TCH8431 (19A), OD405.

Assay [3] deals with T3, MBP-PspA fragment 1-512 fusion protein (Streptococcus pneumoniae strain TCH8431 …, UniProt P0AEX9 27-392 = MBP).
T3 construct: not shown: C-terminal His-tag encoded by the reverse primer PspA512-R
Nature of the assay: ELISA on coated MBP-PspA fragment, OD405.

The target in assay [4] is T4, MBP-PspA fragment 1-438 fusion protein (Streptococcus pneumoniae strain TCH8431 …, UniProt P0AEX9 27-392 = MBP).
T4 construct: not shown: C-terminal His-tag encoded by the reverse primer PspA438-R
Nature of the assay: ELISA on coated MBP-PspA fragment, OD405.

B1: human monoclonal antibody PspA16 (antibody, V domains shown)
VH: QVQLVQSGPDVKKPGASVKVSCKTSGYTFTGYYMHWVRQAPGQGLEWMGWVNPNTGGTSYAQKFQGRVTVTRDTSISTVYMELSALGSDDTAIYFCARAWAPGAEYLHHWGQGTLVTVSS
VL: EIVMTQSPGTLSLSPGETATLSCRASQSVGSSYLAWYQQKPGQAPRLLIFGASNRATGIPVRFSASGSGTDFTLTISRLEPEDFAVYYCQQHDHSPFTFGPGTKVDLK
notes: also called mAb PspA16
With B1, the EC50 in assay [1] was 0.026 µg/mL. The “EC50 (read off the curve)” value in assay [2] was roughly 0.08 µg/mL; in assay [3], roughly 0.04 µg/mL; in assay [4], roughly 0.04 µg/mL.
